Here are results for 139 substances from the supplement of paper PMC12042874.

± gives the uncertainty stated by the source.

The nature of the series: amyloid nucleation score (Sup35N fusion, yeast selection) (log enrichment); library NNK2; higher = more nucleation; inactive = no reads after selection. A digest of the protocol: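 Sup35N was fused to peptides of 20 random codons and expressed in psi-negative yeast, which were induced with 100 μM copper sulfate for 24 hours and then grown on medium lacking adenine and uracil for 7 days at 30°C. Plasmid inserts from input and output were sequenced on Illumina. The nucleation score is the DiMSum log enrichment of output over input reads, centred on the mode score of non-aggregating sequences. Sequences with under 100 input reads were left out, and random libraries had three technical output replicates.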
YFSCEFDTYHGEYCCMWQIM displayed an amyloid nucleation score of 0.069 ± 0.8.

As for YFVCVASDGNMGIRYATR, the amyloid nucleation score entry was “inactive”.

In the case of YFVRFEDIGWTVSVHTGDSG, the amyloid nucleation score was -0.063 ± 0.45.

Regarding YFYNGSRA, the amyloid nucleation score was -1.61 ± 1.1.

The substance YGCCGKDFCVGPRGVCAV had an amyloid nucleation score of 1.05 ± 0.24.

On to YGGKSHPLIWFACIWSYIVN, for which the amyloid nucleation score worked out at 3.04 ± 0.07.

With YGPLNFDTSP, the amyloid nucleation score turned out to be 0.74 ± 0.16.

For the substance YGQKVMPESMKQSFNFMTEI, the amyloid nucleation score was -0.573 ± 0.63.

Regarding YGQSRANDTDDPGWGTVMRL, the amyloid nucleation score came to 0.3 ± 0.74.

Regarding YGSRVYLRVWKLGCFGQYGE, the amyloid nucleation score stood at 1.68 ± 0.27.

YGSVR returned an amyloid nucleation score of 0.669 ± 0.37.

YGVGMVWMVIECEEVGYVRR showed an amyloid nucleation score of 0.683 ± 0.16.

As to YHCENDEALIRDSGPSKTTK, the amyloid nucleation score is 0.485 ± 0.41.

As to YHCGFGAS, the amyloid nucleation score worked out at 0.837 ± 0.44.

For the substance YHFYMASYKAFKSGGVGTGG, the amyloid nucleation score is -1.56 ± 1.1.

As to YHGFSQDCLNV, the amyloid nucleation score was -0.042 ± 0.55.

YHGVLSFLII had an amyloid nucleation score of 1.29 ± 0.36.

For the substance YHRCMKGVRDFVKLVDDCML, the amyloid nucleation score is -1.09 ± 0.49.

Consider YHWIIIRVA, for which the amyloid nucleation score is -0.601 ± 0.79.

With YHWNVGIDGYLNSTMLLQAY, the amyloid nucleation score entry is “inactive”.

Consider YHYANDMFFN, for which the amyloid nucleation score is -0.727 ± 0.56.

The substance YICLAVGDVNGEMNYWVIRG showed an amyloid nucleation score of 6.865 ± 0.043.

Take YIFSILRDKSVPFDSQVSKN: the amyloid nucleation score was -0.797 ± 1.1.

As to YIFSIS, the amyloid nucleation score was -1.26 ± 0.62.

Regarding YIIRRYWARPSYVNSFM, the amyloid nucleation score is -0.31 ± 0.74.

With YIIWLI, the amyloid nucleation score result is “inactive”.

YILSDIIFMGIWGV yielded an amyloid nucleation score of 4.1 ± 0.13.

Take YINSGV: the amyloid nucleation score result is “inactive”.

For the substance YISIPDVCLLHSIPQSRASI, the amyloid nucleation score entry was “inactive”.

As for YIVQWSFMVSRSQ, the amyloid nucleation score was determined as 1.62 ± 0.086.

YKLGTRMSECLRNNVLDSSS: the amyloid nucleation score result was “inactive”.

YKNVFHNCILADSSVYWNTH: the amyloid nucleation score was found to be 5.764 ± 0.044.

YLAFSMEHAGCLHHRVSGIM came in with an amyloid nucleation score of 5.46 ± 0.084.

As to YLEWIL, the amyloid nucleation score is -2.06 ± 0.54.

In the case of YLFVQEKKRVFRYFRWRHPV, the amyloid nucleation score was -0.032 ± 0.8.

Substance YLGICTMFDTGIGEIFTCCT came in with an amyloid nucleation score of 5.78 ± 0.069.

On to YLIAELFQIVDACLWLSSWR, for which the amyloid nucleation score was -0.328 ± 0.38.

Turning to YLIKMTCVGIMFSV, the amyloid nucleation score came out at 6.592 ± 0.04.

For YLKFIKANVRTSGKKLA, the amyloid nucleation score was -0.562 ± 1.1.

Regarding YLKGNIKATVFTNSPMLV, the amyloid nucleation score was -0.085 ± 0.79.

For the substance YLLGRMKWLNTVRWERRDEF, the amyloid nucleation score worked out at 3.51 ± 0.083.

With YLLTLFGPRMTD, the amyloid nucleation score is -1.45 ± 0.76.

For the substance YLLWSTVSAAFSDCRGLKYG, the amyloid nucleation score entry is “inactive”.

On to YLLYSNRQISYTFYCDDTVC, for which the amyloid nucleation score result was “inactive”.

Substance YLPVLEVVPTNGVPHDRFWS gave an amyloid nucleation score of 1.08 ± 0.29.

The substance YLQLRMLTVMGCLRLCTSMP came in with an amyloid nucleation score of 0.386 ± 0.34.

As for YLSIFRVLSIFCVWLHTVGN, the amyloid nucleation score entry was “inactive”.

With YLSKTLIAVMDFCVLDTG, the amyloid nucleation score was -0.971 ± 0.48.

For YLYGGVYKIKIMILPFDRAL, the amyloid nucleation score worked out at 7.621 ± 0.044.

YLYLRKASEFLKGRWWVKYK: the amyloid nucleation score result was “inactive”.

YLYPSCCIRYILILNFYTVI registered an amyloid nucleation score of 0.013 ± 0.16.

For the substance YLYSAQNIRGRWLFCSMKCD, the amyloid nucleation score was -1.03 ± 0.62.

Take YLYSNG: the amyloid nucleation score entry is “inactive”.

For the substance YMNQERVQTVFDSRICFRLH, the amyloid nucleation score was -0.246 ± 0.35.

For the substance YMRDFYRVRNYRRCCVVCPS, the amyloid nucleation score is -1.59 ± 1.1.

The substance YMSFPLDVLVICLCRIVIES had an amyloid nucleation score of 0.089 ± 1.1.

Consider YMTEIANKRSPRACWIGERM, for which the amyloid nucleation score is -0.156 ± 0.79.

As to YNCGSLILNRISSGL, the amyloid nucleation score is -2.21 ± 0.76.

As for YNNAGGQVDLNLCYGLDVFL, the amyloid nucleation score result is “inactive”.

The substance YNQSMYFRVLGFYTYPSDRG gave an amyloid nucleation score of 2.32 ± 0.07.

For the substance YNRNRCEVWRLFCLFCLLCF, the amyloid nucleation score was 2 ± 0.089.

Consider YNSCFYQKWVMCGHSCYHQV, for which the amyloid nucleation score came to 4.77 ± 0.11.

On to YNSTLKFLSKLKLVNIIGTV, for which the amyloid nucleation score is -1.26 ± 1.1.

Turning to YPDDLVMPLDDQRCKARLGH, the amyloid nucleation score is 0.665 ± 0.57.

The substance YPEADALLRFGVMDIHN had an amyloid nucleation score of 0.085 ± 0.36.

Regarding YPFLIS, the amyloid nucleation score is -0.922 ± 1.

On to YPVLN, for which the amyloid nucleation score is -0.834 ± 0.49.

In the case of YQDSKRE, the amyloid nucleation score was -0.833 ± 1.1.

For the substance YQIFNKLVAHFKYNYTQTDR, the amyloid nucleation score is -0.902 ± 0.56.

The substance YQNIVIRLLVLCYNVTDGLV showed an amyloid nucleation score of 3.02 ± 0.14.

On to YQRMPSIYGEVVCHQSCQGV, for which the amyloid nucleation score was -0.069 ± 0.45.

YQRRRSGGLELDWSNTMQGC: the amyloid nucleation score was -0.015 ± 0.31.

For the substance YRCVWYGFPSRSWAGSSDIL, the amyloid nucleation score came out at 0.309 ± 0.8.

YRDECWLSYS: the amyloid nucleation score was -0.347 ± 0.56.

For YRKAGSSQTGNFLLLLLDGG, the amyloid nucleation score is 0.067 ± 0.63.

As to YRLMLMS, the amyloid nucleation score amounted to 0.43 ± 0.42.

In the case of YRMAAVIYIYIIRFSGSCMW, the amyloid nucleation score is -2.08 ± 0.62.

For YRNRVSLRKYRDARYQLCCT, the amyloid nucleation score was 0.247 ± 0.25.

On to YRVAMYMDSVFIMYAYDIPN, for which the amyloid nucleation score was determined as 2.1 ± 0.14.

For YRVCAYLAAKEFDSRHGGDA, the amyloid nucleation score was 0.744 ± 0.37.

On to YRVWWSVIYVKWVG, for which the amyloid nucleation score was -0.618 ± 1.1.

As for YRWDHILDVGSSFVL, the amyloid nucleation score was 3.61 ± 0.064.

In the case of YRWVRVSNRGCRTNMIKYMS, the amyloid nucleation score is -1.66 ± 0.36.

Consider YSCMVFSLGRVMELSGHMFG, for which the amyloid nucleation score result was “inactive”.

In turn, YSFGVQC showed an amyloid nucleation score of 0.067 ± 0.25.

For the substance YSFNLCNS, the amyloid nucleation score is -0.013 ± 0.45.

Substance YSFYAGFVNYIKVWNNRG returned an amyloid nucleation score of 4.23 ± 0.05.

For YSGRREILYHNRVSPHCMNL, the amyloid nucleation score was determined as 2.64 ± 0.12.

YSHAGEASWDYVSLWFSSRK displayed an amyloid nucleation score of 0.49 ± 0.46.

For the substance YSIYELPTHYLKCLRSYKSK, the amyloid nucleation score is -0.627 ± 1.1.

In the case of YSMSLASSRCR, the amyloid nucleation score entry is “inactive”.

YSNRVTLMSYDIN: the amyloid nucleation score entry was “inactive”.

On to YSNSGVTWLRMHNVMFCGEG, for which the amyloid nucleation score is -0.122 ± 0.32.

Consider YSNYTHRNSTLGFKQISRTS, for which the amyloid nucleation score was 0.063 ± 0.79.

For YSPLLTLWKIGRIWIAFMIA, the amyloid nucleation score amounted to 0.148 ± 1.

Take YSPSVVVDCRSGRDRNLRGY: the amyloid nucleation score is -0.254 ± 0.55.

The substance YSRVQSRPMCKLRKALHWRV gave an amyloid nucleation score of 1.31 ± 0.25.

For YSSADGPDSDMCRSVLKLVI, the amyloid nucleation score turned out to be 0.287 ± 0.25.

For the substance YSSFIDNHFAVRR, the amyloid nucleation score was -0.448 ± 0.49.

As for YSSNMASALSYICDPMIFNF, the amyloid nucleation score was -0.703 ± 0.56.

For the substance YSSSSSTYNAWFSMPESHEL, the amyloid nucleation score was found to be 0.264 ± 0.15.

For the substance YSSSVMPRRSDRVRT, the amyloid nucleation score came out at 0.139 ± 0.63.

For YSSVSR, the amyloid nucleation score was -1.05 ± 0.55.

In turn, YSTFSGH returned an amyloid nucleation score of 0.806 ± 0.27.

Take YSTRRLGHLMC: the amyloid nucleation score was -0.381 ± 0.79.

With YSVSSMVKPMIICCNSVNC, the amyloid nucleation score is 8.344 ± 0.051.

On to YSVTLGGWIREQSLQLSTSS, for which the amyloid nucleation score is 0.768 ± 0.46.

Regarding YSYKFAAVSMIWVYPCEHTS, the amyloid nucleation score is 1.71 ± 0.18.

The substance YSYVGFIF displayed an amyloid nucleation score of 1.49 ± 0.32.

Take YSYVVNLLTYTRSECKMLV: the amyloid nucleation score is 5.738 ± 0.035.

YTDISCVLLGLG: the amyloid nucleation score is -1.76 ± 0.78.

As to YTDLG, the amyloid nucleation score was 0.563 ± 0.44.

With YTEGAWVRVSDYRE, the amyloid nucleation score is -0.565 ± 0.29.

Consider YTFKYLSRMYLHYSVKGMWL, for which the amyloid nucleation score was found to be 0.325 ± 0.8.

For YTLNPGFHHRFCVWTA, the amyloid nucleation score result was “inactive”.

For the substance YTMMRFGPPPFETFVVKYGL, the amyloid nucleation score stood at 1.42 ± 0.35.

YTNVVYNYLRSCCGAWYGQR displayed an amyloid nucleation score of 9.015 ± 0.068.

Consider YTQAYILVLIVLLLLSVMVI, for which the amyloid nucleation score came out at 5.638 ± 0.054.

Take YTTRSVMVSCGYCR: the amyloid nucleation score was -0.29 ± 0.27.

As to YTTYGHTSHLTLYPYTPRMM, the amyloid nucleation score is 0.123 ± 0.74.

For the substance YTVGRGSR, the amyloid nucleation score stood at 0.794 ± 0.6.

Turning to YVENTGASCFGAYK, the amyloid nucleation score amounted to 2.25 ± 0.11.

YVITSSPSLYACICSGVSVR returned an amyloid nucleation score of 4.87 ± 0.1.

For YVIVTDFYYNMVRVVFVRMA, the amyloid nucleation score worked out at 0.228 ± 1.

With YVKLCSRRDGT, the amyloid nucleation score was -0.352 ± 0.18.

For YVRMMTNSTLLGRGLKYLCV, the amyloid nucleation score was found to be 0.429 ± 0.62.

As for YVSWRTNGLMSTCDFLTRQT, the amyloid nucleation score worked out at 0.719 ± 0.23.

YVVVLNWNSHCSKYYELRQE registered an amyloid nucleation score of 8.402 ± 0.05.

For the substance YVYMSYPYIILLFHYMSSDW, the amyloid nucleation score result is “inactive”.

YVYSVYNFLRVLICAGTG had an amyloid nucleation score of 6.185 ± 0.037.

The substance YVYVDYWICTIWCVLCNLCS gave an amyloid nucleation score of 0.256 ± 1.

As for YWANMVG, the amyloid nucleation score is -0.328 ± 0.48.

YWFFCGRWK gave an amyloid nucleation score of 4.7 ± 0.11.

Take YWPLVIFLAWPMKYFVLEVM: the amyloid nucleation score is -0.417 ± 0.43.

On to YWSCTMRVFRVTLNCSNS, for which the amyloid nucleation score is 3.44 ± 0.066.

Consider YWSETCLSMGENEHFNSWKI, for which the amyloid nucleation score entry is “inactive”.

YWVFMNSRLVAIGPANALVV: the amyloid nucleation score is -0.69 ± 1.1.

Consider YWVLQNYHLYCLYKSKSRNW, for which the amyloid nucleation score was -0.403 ± 0.4.

For YYAGADFEGNSCGDSIPACR, the amyloid nucleation score is -0.208 ± 1.1.
